Measurements from the supplement of paper PMC10567573.

B1: ZNF263 (parent)
chain: RTHTGEKPYKCTLCGENFSHRSNL
B2: CSTF3 (parent)
chain: YVPEKVKKAEKKLEENPYDLDAWS

Variants of: B1
Test: protein stability index of a GFP-peptide fusion (GPS, HEK-293T) (PSI 1-6); higher = more stable
Details: c terminus: a fixed tail appended
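Note: lentivirally expressed fusions sorted by FACS into six bins by GFP to DsRed ratio, PSI derived from sequencing read proportions per bin multiplied by bin number.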

Protein stability index of substitutions, site by site:
K10: N 1.91, P 2.03, W 2.38, M 1.97, Q 2.36, V 2.05, T 1.78, E 2.04, S 1.58
R21: W 1.68, L 1.64, F 2.01, I 1.92, G 2.3, P 2.08
P8: W 1.46, R 1.99, S 1.78, Q 2.09, M 2.3, K 2.06, A 2.1
S22: F 2, Q 2.01, T 1.92, E 2.23, P 1.79, W 1.44, I 1.9, M 2, C 3.19, H 2.4, D 2.11, Y 1.63, V 1.91
Y9: D 2.44, S 2.38, G 1.6, T 2.33, N 2.1
T12: C 1.84, Q 2.04, Y 1.5, K 1.98, V 1.65
T4: H 1.91, A 2.47, E 2.77, W 1.75, Y 2.43, C 2.04, P 2.34, L 1.79, S 2.03
G5: Q 2.46, K 2.37, C 3.14, M 2.13, V 1.83, Y 1.63, A 1.59
F18: N 2.09, E 2.22, S 2.37, C 3.74, Q 2.1, L 1.96, I 2.17, R 2.15, K 1.74, M 1.82, Y 1.91
H20: M 1.98, Q 2.26, C 2.03, G 1.92, F 1.67, E 2.04, W 2.28, L 2.03
L13: I 2.44, M 1.76, S 2.64, D 3.21, G 2.42
E6: W 1.58, N 1.67, C 2.44, I 1.69, S 2.39, G 1.88, H 1.71
G15: I 2.13, A 1.68, L 1.97, K 2.13, T 1.79, V 1.57, R 1.75, N 1.87, D 2.1
K7: S 2.2, A 2.04, Q 1.71, V 2.37, L 1.86, E 2.12, F 1.85, Y 1.73, P 1.62, D 2.02
L24: A 2.3, P 2.33, Y 1.78, K 2.63, N 2.37, D 2.39, R 1.95, M 1.91, Q 2.33, W 1.82
N23: C 3.48, A 2.28, K 2.17, Q 1.91, Y 1.96, H 1.96
H3: E 1.74, M 2.19, G 1.93, Q 2.31, C 1.61, N 1.97, W 1.41, I 2.58
N17: V 1.92, H 2.15, W 2.42, K 2.26, E 2.4, G 2.12, F 2.07, Y 1.91
S19: F 2.12, R 2.01, M 1.96, G 1.96, A 2.21, E 2.29, Q 2.09, D 2.21
T2: H 2.21, W 2.35, M 1.97, F 1.73, A 2.02, V 2.52, L 2.17
C14: P 2.83, L 2.73, K 3.48, H 2.84, A 3.07, W 2.39, M 3.43, I 2.98
C11: L 2.9, A 2.67, V 2.51, N 3.16, H 3.13, D 3.87, E 3.97, P 3.02
E16: A 1.8, Q 2.46, Y 2.08, I 1.83, G 1.68, C 1.98, S 1.99, P 1.94, W 1.77
R1: W 1.99, E 2.13, S 1.89, M 1.38, H 3.08, Q 1.79

Variants of: B2
Test: as above
Details: c terminus: a fixed tail appended

Protein stability index, by site and new letter:
L20: P 2.23, C 2.71, F 1.44, I 1.97, W 1.55, V 3.2, M 1.91, K 1.96, R 2.9, G 2.15, S 2.24, A 2.54, H 2.84, Y 2.13, D 1.73, Q 2.79, T 3.25, E 1.76
S24: D 2.21, E 1.36, I 1.86, T 2.81, Q 2.23, W 1.66, P 2.56, F 2.83, K 2.79, C 3.61, N 2.26, L 3.1, M 2.15, R 2.02, A 3.55, V 2.85, G 3.98, Y 3.69, H 1.95
P17: K 1.32, Q 1.22, R 2.29, T 3.18, W 2.5, F 1.95, N 2.52, M 2.48, E 2.63, V 1.43, I 2.32, H 2.04, G 2.39, A 2.45, D 3.55, L 3.01, C 2.34, S 2.37, Y 2.43
A22: E 2.29, P 2.47, D 1.67, K 1.36, I 2.39, Y 2.36, G 2.4, N 2.26, H 3.16, Q 2.98, R 2.65, S 2.38, C 2.59, M 2.48, V 3.55, T 1.88, F 1.8, L 3.05, W 2.73
Y18: N 2.38, A 2.62, K 3.33, T 2.27, C 2.88, V 1.45, H 2.12, G 2.35, S 2.46, E 1.93, M 2.58, Q 2.17, R 2.77, W 1.61, F 2.55, L 2.15, D 5.04, P 2.71, I 2.47
D21: Q 2.86, S 2.21, H 2.43, N 4.07, W 2.24, A 2.98, E 3.37, F 2.63, I 3.3, L 1.99, M 3.19, P 1.43, R 2.03, G 2.66, Y 2.19, V 1.83
W23: H 1.95, Q 1.79, N 3.51, P 3.22, Y 1.77, R 2.81, M 3.05, D 1.91, V 2.38, L 2.93, I 2.37, K 1.84, G 3.81, S 2.6, F 3.27, A 1.81, C 2.38, E 1.28, T 2.64
D19: G 3.95, N 2.54, A 2.2, R 2.04, M 2.14, K 3.97, W 2.98, P 2.59, E 2.57, T 2.34, Q 3.34, Y 2.69, S 2.91, I 2.28, L 1.62, H 1.58
